This data set relates to La protein (Homo sapiens). The experiment in a line: immunoprecipitation.

Take EBER1 wild type: the binding signal (reference (wild type)) was 1.

Values taken from PMC2063832.
